# Data: the nanobody polyreactivity screen of Harvey et al. (2022)
# Assay: yeast display, Sf9 membrane polyspecificity reagent, FACS + sequencing; frameworks hold sequencing errors
# Outline: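 Nanobodies from a synthetic yeast display library (Saccharomyces cerevisiae BJ5465), induced 36–48 hours with galactose, were stained 1 hour at 4 °C with 10% biotinylated, detergent-solubilized Sf9 membrane reagent, enriched on streptavidin microbeads, then FACS-sorted. Anti-HA (expression) and streptavidin (reagent binding) fluorescence set low and high (top ~1%) gates. Polyreactivity labels come from the gate of origin. Genes were colony-PCR amplified, MiSeq 2 × 250 sequenced and filtered by CDR length.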
sequence,measurement,value
QVQLVESGGGLVQAGCSLRISSAASGRIFAVKAMGWYRQAPGKDRELVAAITNVGSTNYADSVKGRFTISRDNAKNTVYLQMNSLKPEDTAVYYCNADLAQEDWKMDYWGQGTQVTVSS,polyreactivity (PSR sort gate),low polyreactivity
QVQLVESGGGLVQAGGSLRLSCAASGRIFGYYAMGWYRQAPGKERELVAAITSGGRTYYADSVKGRFTISRDNAKNTVYLHMNSLKPEDTAVYYCAAVRALRKVRDYYYWGQGTQVTVSS,polyreactivity (PSR sort gate),high polyreactivity
QVQLVESGGGLVQAGGSLRLSCAASGFILSHYVMGWYRPAPGKERELVATIRNVGSTKYADSVKGRFTISRDNAKNTVYLQMNSLKPEDTAVYYCNARRWEGYYEFNYWGQGTQVTVSS,polyreactivity (PSR sort gate),low polyreactivity
QVQLVESGGGLVQAGGSLRLSCAASGRTFYYYAMGWYRQAPGKERELVATITKSSGSTSYADSVKGRFTISRDNAKNTVYLQMNSLKPEDSAVYSCARRIKWGKFKGWNYPAHNYWGQGTQVTVSS,polyreactivity (PSR sort gate),high polyreactivity
QVQLVESGGGLVQAGGSLRLSSADSGRIFSYYAMGGYRQAPGKEREFVATITYGGGSTYYADSVKGRFTISRDNAKNTVYLQMNSLKPEDTAVYYCAARGYSYRGWRMDYWGQGSQVTVSS,polyreactivity (PSR sort gate),high polyreactivity
QVQLVESGAGLVQAGGSLRLSCAAYGSIFIIYAMGWYRQAPGKERELVAAINTSGTSTYYADSVKGRFTISRDNAKNTVYLQMNSLKPEDTAVYYCAAAGRRSYKYYYWGQGTQVTVSS,polyreactivity (PSR sort gate),high polyreactivity
QVQLVESGGGLVQAGGSLRLSCAASGNILWFNAMGWYRQAPGKERELVASISSSGGRTYYADSVKGRFTISRDNAKNTVYLQMNSLKPEDTAVYYCAAEYYYGWTYSGGLGFLGYNYWGQGTQVTVSS,polyreactivity (PSR sort gate),low polyreactivity
QVHLVESGGGLVQAGGSLRLSCAASGRIFYYNAIGWYRQAPGKERELVANITRARGTYYADSVKGPFTISRDNAKNTVYLQMNSLKPEDTAVYYCAKRHPIVDDYKGDYWGQGTQVTVSS,polyreactivity (PSR sort gate),low polyreactivity
QGQLVESGGGLVQAGGSLRLSCAASGFTFQYYAMGWSRQAPGKERELVAAISWSGGRTYYADSVKGRFTISRDNAKNTESLQMNSLKPEDTAVYYCAASYIVYPARYEDEGDYWGQGTQVTVSS,polyreactivity (PSR sort gate),high polyreactivity
QVQLVESGGGLVQAGGSLRLSCAASGFIFSYYAMGWYRQAPGKERELVAAITWDGGSTYYADSVKGRFTISRDYANNTVYLLLNSLKPEDTAVYYCNAYYYYRRPLEGGYWGQGNQVTVSS,polyreactivity (PSR sort gate),low polyreactivity
QVQLVESGGGLVQAGGSLRLSSAASGSIFIGYAMGWYRQAPGKARELVAAINDSGDRTYYADSVKGRFTISRDNAKNTVFLQMNSLKREDTAVYYCAADLGSLDPEYDYWGQGTQVTVSS,polyreactivity (PSR sort gate),low polyreactivity
QVQLVESGGGLVQAGGSLRLSCAASGNIFITNAMGWYRQAPGKERELVADISFSGGSTNYADSVKGRFTISRDNAKNTVYLQMNSLKPEDTAVYYCAARALASVSAHKYDNWGQGTQVTVST,polyreactivity (PSR sort gate),low polyreactivity
QVQLLESGGGLVQAGGSLRLSCAASGRTFHFNAMGWYRKAPWKERELVAAITNSGGRTSYADSVKGRFTISRDNAKNTVYLQMNSLKPEDTAVYYCNVEVTYSSGKYDYWGQGTQVTVSS,polyreactivity (PSR sort gate),low polyreactivity
QVQLVESGGGLVQAGGSLRLSCAASGSIFVWYAMGWYRQAPGKERELVARITSGGRTNYADSVKGRFTISRDNAKNTVYLQMNSLKPEDTAVYDCAAGRVSWSPYYYWGQGTQVNVSS,polyreactivity (PSR sort gate),high polyreactivity
QVQLVESGGGLVQAGGSLRLSCAASGSTRYYMGWYRQAPGKEREMVAAISKSGGTTYYADSVKGRFTISRDNAMTTVYLQMTSLKPEDTAVYYCAAQRSRSYTYDYWGQGTQVTVSS,polyreactivity (PSR sort gate),high polyreactivity
QVQLGESGGGLVQAGGSLRLCCAASGRIFVRYTRGWYRQAPGKERELVAAIDQRGGSTYYADSVKGRFTISRDNANNTVSLQLNSLKPEDTAVYYCARVASRTRPGYGYWGQGTQVTVSS,polyreactivity (PSR sort gate),low polyreactivity
QVQLEESGGGLVQAGGSLRLSCAASGSIFEYYAMGWYRPAPGKERELVAAISSGGPTYYADSVKGRFTISRDNAKNTVYLQMNSLKPEDTAVYYCNADLWYPDYAYWGQGTQLTVSS,polyreactivity (PSR sort gate),low polyreactivity
QVQLVESGGGLVQAGGSLRLSCAASGSTFYGYGLGWYRPAPGKERELFAAITGSGDTTYYADSVKGRFTISRDNAKNTVYLQMNSLKPEDTAVYYCNARWHAEYDYWGQGTQVTVSS,polyreactivity (PSR sort gate),low polyreactivity
QVQLVESGGGLVQAGGSLRLSCAASGFTFVYNAMGWYRQAPGKERELVAAISSSGGRTYYADSVKGRFTISRDNAKNTVYLQMNSLKPEDTAVYYCAVEYPVYYYVEYDYWGQGTQVTVSS,polyreactivity (PSR sort gate),high polyreactivity
QVQLVESGGGLVQAGGSLRLSCAASGRTFYGYAMGWYRQAPGKERELVASISRDGSTNYADSVKGRFTISRDNAKNTVYLQMNSLKPEDTAVYYCAADWVYYRYWPYVGYDYWGQGTQVTVSS,polyreactivity (PSR sort gate),low polyreactivity
QVQLVQSVGGLVQAGGSLRLSCAATGRIFFSYAMGWYRQAPGKERELVAAISWDGGSTYYADSVKGRFTISRDNAKNTDYLQMTSLKPEDTAVSYCNADTHFPPSSSSYSPSLLDYWGQGTQVTVSS,polyreactivity (PSR sort gate),low polyreactivity
QVQLVESGGGLVQAGGSLRLTCAASGNIFRAYAMGWYRQAPGKERELVAAISWNAGTTYYADSVKGRFTISRDHAKNTVYLQMHSLKPEDTAVYYCAASKLLRRGLCKYYKATYSYDYWGQGTQVTVSS,polyreactivity (PSR sort gate),high polyreactivity
QVQLVESGGGLVQAGGSLRLSCAASGRTFRLYAMGWYIQAPGKERELVAAISSTGSTYYADSVKGRFTISLDNAKNTVYLQMNSLKPEDTAVYYCNAKLPVTSLKFDYYYWGQGSQVTVSS,polyreactivity (PSR sort gate),high polyreactivity
QVQLVESGGGLVQAGGSLRLSCAASGFTFRWYAMGWYRQAPGKERELVASISRRGGSTYYADSVKGRFTISRDNAKNTVYLQMNSLKPEDTAVYYCAADYYDYWGQGTQVTVSS,polyreactivity (PSR sort gate),high polyreactivity
QVQLVESGGGLVHAGGSLRLSCAASGSTFYSNTMGWYRQAPGKERELVAAIDTSGDSTNYADSVKGRFTISRDNAKNTVYLQMNSLKPEDTAVYYCNRRVSDRAFPFNYWGQGTQVTVSS,polyreactivity (PSR sort gate),low polyreactivity
QVQLVESGGGLVQAGGSLRLSCAASGRIFRGYTMGWYRQAPGKERELVAAISRSTGSTNYADSVKGRFTISRDNAKNTVYLQMNSLKPEDTAVYYCAATVSPSYDYWGQGTQVTVSS,polyreactivity (PSR sort gate),high polyreactivity
QVQLVESGGGLVQAGGSLRLSCAASGSILAINAMGWYRQAPGKERELVAAINWSGGSTFYADSVKGRFTISRDNAKNTVYLQMNSLKPEDTAVYYCNVEWTDSERGDYYVDYDYWGQGTQVTVSS,polyreactivity (PSR sort gate),low polyreactivity
QVQLVESGGGLVQAGGSLRLSCAASGSTFHLNAMGWYIQAPGKERELVAAISLSGGSTYYADSVKGRFTISRDHAKNTVYLQMNSLKPEYTAVYYCAAEQWYDNYLEYDYWGQGTEVTVSS,polyreactivity (PSR sort gate),high polyreactivity
QVQLVESGGGLVQAGGSLRLSCAASGSTFHYYAMGWYRQAPGKERELVAAIRTSGGSTYYADSVKGRFTISRDNAKNTVYLQMNSLKPEDTAVYYCNRVLGYPYGVDYWGQGTQVTVSS,polyreactivity (PSR sort gate),high polyreactivity
QVQLVESGGGLVQAGGSLRLSCAASGSIFRYNAMGWYRQAPGKERELVAAISSGGSTKYADSVKGRFTISRDNAKKTVYLQMNSLKPEDTAVYYCVARRARYDYWGQGTQVTVSS,polyreactivity (PSR sort gate),high polyreactivity
QVHHVESGGGLVQAGGSLRLSSAASGSIFTYTMGWYRQAPGKERELVAAISGGGGRTYYADSVKGRFTISRDNAKNNVYLQMKSLKPEDSAVYYCNAYQYWRYRWQYNYWGQGTQVTVSW,polyreactivity (PSR sort gate),high polyreactivity
QVQLVESGGGLVQAGGSLRLSCAASGNIFDTYVMGWYRQAPGKERELVAAITSDGGTYYADSVKGRFTISRDNAKNTVYLQMNSLKPEDTAVYYCAADTYYYPIHDYWGQGTQVTVSS,polyreactivity (PSR sort gate),low polyreactivity
QVQLVESGGGLVQAGGSLRLSCAASGSTFWIYAMGWYIQAPGTERELVAAITLRSGSTYYADSVKGRFTISRDNAKNTVYLQMISLKPEDTAVYYCATDSWGVDRPNYNYWGQGTQVTVSS,polyreactivity (PSR sort gate),low polyreactivity
QVQLVESGGGLVQAGGSLRLSCAASGRTFRYYTKGWYRQAPGKERELVAAITYSGGSTYYADSVKGRFTISRDNAMNTVYLQMNSLKPVDTAVYYCAAKASGNYYYYWGQGTQVTVSS,polyreactivity (PSR sort gate),high polyreactivity
QVQLVESCGGLVQAGGSLRLSCAASGSTFAVNVMGWYRQAPGKERELDATITYRDGRTYYADSVKGRFTISRDNAKNTVYVQMNSLKPEVTALYYCAADWYTTYDYWGQGTQVTVSS,polyreactivity (PSR sort gate),low polyreactivity
QVQLVESGGGLVQAGGRLRLICAASGSILNNYAMGWYRQAPGKERELVAAISSSGGTNYADSVKGRFTISRDNAKNTVYLQMNSLKPEDTAVYYCNADVLDGGYDYWGQGTQVTVSS,polyreactivity (PSR sort gate),low polyreactivity
QVQLVESGGGLVQAGGSLRLSCAASGRIFYRYAMGWYRQAPGKERELVAAISSAGSTNYADSVKGRFTISRDNAKNTVYLQMNSLKPEDTAVYYCNTVTRWVGKLEYWGQGTQVTVSS,polyreactivity (PSR sort gate),high polyreactivity
QVQLVESGGGLVQAGGSRRLSSAASGIILDHNAMGWYRQAPGKERELVAAISSGTRTNYADSVKGRFTISRDNAKNTVYLQMNSLKPEDTAVYYCAATIYRRYPSKSSITSYWGQGTQVTVSS,polyreactivity (PSR sort gate),high polyreactivity
QVQLVESGGGLVQAGGSLRLSCADSGSIFAYYAMGWYRQAPGKERELVADITSSGGITYYADSVKGRFTISRDNAKNTVYLQMNSLKPEDTAVYYCNADSLAIVGGSYPYDYWGQGTQVTVSS,polyreactivity (PSR sort gate),low polyreactivity
QVQLVESGGGLVQAGGRLRLSCAASVFTYKSYAMVWYRQAPGKERELVASIDKSTGNTFYADSVKGRFTISRDNAKNTVYLQMNSLKPEDTAVYYCAVDLLRSESHSKHIIYDYWGQGTQVTVSS,polyreactivity (PSR sort gate),low polyreactivity
QVQLVESGGGLVHAGGSLRLSCAASGFTFLRYVMGWYRQTPGKERELVAAISYSGGRTYYADSVKGRFTISRDNAKKTVYLQMNSLKPEDTAVYYCAAESFYPAGFRGYWGQGTQVTVSS,polyreactivity (PSR sort gate),high polyreactivity
QVQLVESGGGLVQAGGSLRLSCAASGIIFWRYAMGWYRQAPGKERELDAGITSRGGSTYYADSVKGRFTISRDNAKNTVYLQMNSLKPEDTAVYYCNAPRGSRRSYRRTEYYYWGQGTQVTVSS,polyreactivity (PSR sort gate),high polyreactivity
QVQLVESGGGLVQAGGSLRLSCAASGSTFPWNAMGWYSQAPGKEREMVAAINYGNGSTYYADSVKGRFTISRDNAKNTVYLQMNSLKPEDTAVYYCNADYTGTRTDSVSPEYEYWGQGTQVTVSS,polyreactivity (PSR sort gate),low polyreactivity
